Biological target: T1, human blood coagulation factor VIII C2 domain (human, UniProt P00451)
T1 construct: C2 domain of human blood coagulation factor VIII; pET15b with N-terminal His6 tag and a thrombin cleavage site; also called fVIII C2 domain
Experiment: crystal structure; C2 domain/3E6 FAB binary complex formed at 37 °C for 30 minutes with 1.5-fold molar excess of C2 domain, separated on Superdex 75; crystals from 10 mM MES (pH 6.4-6.8), 20% (w/v) PEG 8000; two complexes in the asymmetric unit; 2.61 Å
Details: both partners purified

T1 sequence (P00451 2190-2351): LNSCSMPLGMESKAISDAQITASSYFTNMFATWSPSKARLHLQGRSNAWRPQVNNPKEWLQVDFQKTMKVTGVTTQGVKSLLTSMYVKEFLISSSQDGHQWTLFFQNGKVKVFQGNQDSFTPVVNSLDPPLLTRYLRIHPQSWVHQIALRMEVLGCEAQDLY

binding result: binds
B1: 3E6 antigen-binding fragment (FAB) of the classical anti-fVIII C2 domain inhibitory antibody 3E6 (Fab, V domains shown)
VH: QIQLVQSGPELKKPGKTVKISCKASDYTFTDYSLHWVKQAPGKGLKWMGWINTETGDPAYADDFKGRFAFSLETSVRTAYLQINNLKNEDTAIYFCAREDDGLASWGQGTTLTVSS
VL: QIVLTQSPAIMSASPGEKVTMTCSASSTVSYMYWYQQKPGSSPRFLISDTSNLASGVPVRFSGSGSGTSYSLTISRIEAEDAATYYCQHWSSYPLTFGGGTKLELK
notes: heavy chain of the 3E6 FAB is chain A (complex 1) and chain E (complex 2) of PDB 4XZU; light chain of the 3E6 FAB is chain B (complex 1) and chain F (complex 2) of PDB 4XZU; Fab made by papain cleavage of the murine monoclonal IgG; complex 1 (chains A, B) is the more complete model; also called 3E6 FAB; 3E6 antibody

Reference: PMC4657047, “Structure of the Human Factor VIII C2 Domain in Complex with the 3E6 Inhibitory Antibody” (Scientific Reports, 2015)
